In the supplement of paper PMC12042874 one finds amyloid nucleation score data, which are given here for 104 substances.

± gives the uncertainty stated by the source.

The data set is described as follows: amyloid nucleation score (Sup35N fusion, yeast selection) (log enrichment); library NNK2; higher = more nucleation; inactive = no reads after selection. A digest of the protocol:
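Sup35N was fused to peptides of 20 random codons and expressed in psi-negative yeast, which were induced with 100 μM copper sulfate for 24 hours and then grown on medium lacking adenine and uracil for 7 days at 30°C. Plasmid inserts from input and output were sequenced on Illumina. The nucleation score is the DiMSum log enrichment of output over input reads, centred on the mode score of non-aggregating sequences. Sequences with under 100 input reads were left out, and random libraries had three technical output replicates.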
For VYCHRLNIILIGRVFCSEDI, the amyloid nucleation score came to 0.062 ± 0.55.

Take LSVPRIFGSFVWVRQ: the amyloid nucleation score is -0.633 ± 1.1.

Consider KYSAYWG, for which the amyloid nucleation score came to 0.518 ± 0.4.

Turning to QKRPVDIVPDHVWLWTR, the amyloid nucleation score is 0.114 ± 0.55.

NTAFADVDAF gave an amyloid nucleation score of -0.645 ± 0.55.

GHVAWSNDSWERESFF registered an amyloid nucleation score of -0.989 ± 0.76.

As for IYSEDGRAMASMIHVSRKHG, the amyloid nucleation score was 0.91 ± 0.43.

In turn, RAMANHHDDWLVPGFQ came in with an amyloid nucleation score of -0.258 ± 0.45.

LWLMVCMMYM yielded an amyloid nucleation score of 2.09 ± 0.15.

The substance FVGCYNSRK came in with an amyloid nucleation score of 2.4 ± 0.08.

IFSTHVEFRWQLILGL returned an amyloid nucleation score of -0.426 ± 0.25.

Substance LPWHICLVHPR had an amyloid nucleation score of 1.81 ± 0.078.

In turn, YTGRSDVNSVLRV gave an amyloid nucleation score of 0.183 ± 1.

For DVKIVYSKTDRWRMGRSPES, the amyloid nucleation score amounted to 1.55 ± 0.2.

FSGTF: the amyloid nucleation score is -1.07 ± 0.76.

DYSVEGHLRMLLNKKRVGVE: the amyloid nucleation score is -1.01 ± 0.76.

The substance STVGEVYVGLALMDVWGMEW yielded an amyloid nucleation score of 0.559 ± 0.32.

Substance VWQVGQQRY showed an amyloid nucleation score of 0.899 ± 0.17.

MIVLKRSPSLCSIS gave an amyloid nucleation score of -0.007 ± 0.34.

For the substance KDFFSVVSH, the amyloid nucleation score is 0.573 ± 0.66.

Turning to SGINNIWYEDLTLPKWSKG, the amyloid nucleation score was -0.401 ± 0.55.

For the substance STTYFDVCMVGFWYNFSTWG, the amyloid nucleation score was -0.994 ± 1.1.

FSSCSDRLGHGLNSLTKHLI returned an amyloid nucleation score of -0.737 ± 0.39.

The substance TTEWFHESFREQFVMESFVS returned an amyloid nucleation score of -1.26 ± 0.41.

AGFSSDGLQVMIIYD returned an amyloid nucleation score of 0.379 ± 0.31.

RTLNGADFS yielded an amyloid nucleation score of 0.486 ± 0.8.

On to CVLHEPLYS, for which the amyloid nucleation score was -0.432 ± 0.3.

With FRTYSAVVEWARNKYNLFCG, the amyloid nucleation score was -0.271 ± 0.28.

The substance NSVFRTDCGKRGMVVPGRAH yielded an amyloid nucleation score of 1.04 ± 0.35.

As for FVLRCDPVMA, the amyloid nucleation score was -0.053 ± 1.

Regarding WWHAAFFVAAFPNA, the amyloid nucleation score was found to be 2.19 ± 0.17.

The substance GMSERRWSCQLVGAVHDMAA returned an amyloid nucleation score of 1.17 ± 0.14.

The substance MSSHSTCRGVGINGLMVFVL gave an amyloid nucleation score of 8.073 ± 0.057.

TYRIQRIFLPLYRWLVLLLS: the amyloid nucleation score was -0.285 ± 0.76.

In turn, PVKIGMFPVGRWQFKDQFGF displayed an amyloid nucleation score of -0.704 ± 0.44.

In the case of LFRGRMPFPRDSEYLRNRWK, the amyloid nucleation score was -0.287 ± 0.28.

Regarding ICVYSTRTDKMSCRPF, the amyloid nucleation score was 0.856 ± 0.6.

As to LTFACSVLL, the amyloid nucleation score was determined as 3.1 ± 0.092.

As for CTLLTNITLFRGLHGTKFFC, the amyloid nucleation score was 2.43 ± 0.14.

The substance GVLMCVAVYRFVCMKRSGML showed an amyloid nucleation score of 0.039 ± 0.19.

SNCVCSRIVCCVRMGTGL yielded an amyloid nucleation score of 9.908 ± 0.042.

On to VLGVLQFVAFWNVVMWISPL, for which the amyloid nucleation score is -0.659 ± 0.76.

In turn, WESLVETSSTLFLRECYNVF had an amyloid nucleation score of -1.86 ± 0.53.

FGVITNSGCGRLFAEEKTRW came in with an amyloid nucleation score of 1.15 ± 0.16.

For RLPTGSQNY, the amyloid nucleation score is -0.281 ± 0.38.

For the substance IFSQGHEYKRDELKNV, the amyloid nucleation score entry was “inactive”.

DPYYLKGYCVWEEYSWCPS: the amyloid nucleation score is -0.749 ± 0.55.

The substance WTSPGSLPKRALCGRVERYA displayed an amyloid nucleation score of -0.53 ± 0.29.

FVNYSRGRFQVGLVMFRVRP returned an amyloid nucleation score of 0.427 ± 0.74.

As to FVRQNVSFTLGKYYQWVVGM, the amyloid nucleation score is -0.933 ± 0.24.

In turn, CGTLINADRPAWH returned an amyloid nucleation score of -0.593 ± 0.35.

Substance DGDLTLNWVRSRLPLKNFRG returned an amyloid nucleation score of 0.144 ± 0.54.

INDVLFTTRRGHTIS: the amyloid nucleation score worked out at 2.75 ± 0.094.

GTLELMHETWVPSLYPVRMQ displayed an amyloid nucleation score of 0.571 ± 0.4.

Consider FLECTSNIDVAMSPWLTLLN, for which the amyloid nucleation score is -0.505 ± 1.1.

With LLGWPRLYLWTE, the amyloid nucleation score worked out at 0.402 ± 0.42.

GYCQVKSGCCSGEECCFWMI showed an amyloid nucleation score of 3.68 ± 0.099.

Regarding DIMLAPHNSVDNGSRKEYGA, the amyloid nucleation score is 0.424 ± 0.64.

As for FSTWSTLDSVACW, the amyloid nucleation score result is “inactive”.

In turn, VDILG displayed an amyloid nucleation score of -0.094 ± 1.

HYYSIDEASRYKMDLNLSLL registered an amyloid nucleation score of 2.91 ± 0.099.

Regarding RWFFEQDIIYLSRVRGDFRV, the amyloid nucleation score result was “inactive”.

Consider TPILFVT, for which the amyloid nucleation score is -0.746 ± 0.56.

MCRFVLSASCFMYIEHRYGR came in with an amyloid nucleation score of 0.734 ± 0.81.

In the case of NEHCVNAGSRWMDGCVSCWY, the amyloid nucleation score came to 3.58 ± 0.082.

Substance FNRPAQNGLAKYWYWIQ displayed an amyloid nucleation score of 0.142 ± 0.42.

The substance INMCNP displayed an amyloid nucleation score of 2.89 ± 0.072.

Consider HCNCHRIVYLECVLPYIHCI, for which the amyloid nucleation score is -0.919 ± 0.55.

Turning to TFLVLLRVMVWVV, the amyloid nucleation score stood at 0.648 ± 0.6.

Take TWLSCPTLNHLVTNMPWY: the amyloid nucleation score was -0.759 ± 0.39.

Consider KWNRWYVALCLVSV, for which the amyloid nucleation score worked out at 10.08 ± 0.03.

As for YGRLRLVA, the amyloid nucleation score is -0.637 ± 0.54.

For SMSPGVFLISGWPMVENVVF, the amyloid nucleation score entry is “inactive”.

In turn, REYASILMYRNCMCH had an amyloid nucleation score of 0.007 ± 0.5.

For ISSDRIYICL, the amyloid nucleation score turned out to be 5.996 ± 0.059.

RYHVRMKISCRF came in with an amyloid nucleation score of 2.74 ± 0.11.

For the substance RSYSGVFT, the amyloid nucleation score was -0.926 ± 0.48.

Consider SNGLMSACRWYLPAFLED, for which the amyloid nucleation score entry is “inactive”.

VKVVVNSSDNCVSIDWSYGR had an amyloid nucleation score of 2.14 ± 0.17.

Turning to HQVSGSDWPRSDYLRCLTIA, the amyloid nucleation score came to 1.82 ± 0.19.

Substance KAPRTIYPVVLQPAS displayed an amyloid nucleation score of -0.484 ± 0.33.

For ITFYGTF, the amyloid nucleation score result is “inactive”.

For the substance LSSCLHEIRDSVVVRVVVVY, the amyloid nucleation score was -0.684 ± 0.5.

In turn, KRVLDSGFN gave an amyloid nucleation score of -0.845 ± 1.

The substance MEYRGQVQGCSYPWVYRLGW returned an amyloid nucleation score of -0.078 ± 0.54.

Consider AISSEGELLAVDFWNSNLDP, for which the amyloid nucleation score was -0.509 ± 0.23.

On to DEMVDAFYYSAM, for which the amyloid nucleation score amounted to 0.35 ± 0.8.

The substance VDICGTRGKRRYCSLRLFAW had an amyloid nucleation score of -0.594 ± 1.1.

SIVFSLW: the amyloid nucleation score came out at 1.62 ± 0.14.

In turn, ANFCVDCIDIAH returned an amyloid nucleation score of 0.787 ± 0.45.

Regarding QLKYVSGNIYRLVVWVRGSP, the amyloid nucleation score was -0.926 ± 0.37.

Consider CCPEHRNRAGNNDFWSARTQ, for which the amyloid nucleation score came to 0.392 ± 0.57.

CRRCTIGLISDRGVLAAEES returned an amyloid nucleation score of -0.403 ± 0.63.

The substance RFKSIWAVNVIWNDYVADNG registered an amyloid nucleation score of 7.835 ± 0.077.

In turn, CVFPRFYIHDFSTLGTMYTL gave an amyloid nucleation score of 4.24 ± 0.12.

For the substance MTTALDGSLYVWCQCAVDVI, the amyloid nucleation score was found to be 0.379 ± 0.54.

Regarding LRLGRLPFMRSISVTCKNEL, the amyloid nucleation score is 1.91 ± 0.32.

As for HTGLSVGKFKVRHGNVHRVF, the amyloid nucleation score was -0.181 ± 0.34.

In the case of VLISSKYLIQSVDYILLNGP, the amyloid nucleation score is -0.217 ± 0.29.

With LERECVENDGLGWSRLEYVR, the amyloid nucleation score was 0.42 ± 0.33.

Regarding FQMVLYRYYTTGISGKLLQD, the amyloid nucleation score result is “inactive”.

In turn, DTNLFTGGSLSVFYFDDGDK gave an amyloid nucleation score of 2.96 ± 0.15.

The substance VKMFVF came in with an amyloid nucleation score of -0.221 ± 0.79.

As to GYNQEYRLSTMKAMLGRLLV, the amyloid nucleation score result is “inactive”.
